Literature values in paper PMC11348067.

Biological target: Mucin 1 (human) (UniProt P15941)
Test: not stated (cited)
Conditions: aptamer/padlock annealed in water with 80 mM NaCl (2 uL of 800 mM in 20 uL), then 40 uL protein added, 30 min; pH and binding temperature not stated; ligation …

Mucin 1 (human), sequence (P15941 24-1158): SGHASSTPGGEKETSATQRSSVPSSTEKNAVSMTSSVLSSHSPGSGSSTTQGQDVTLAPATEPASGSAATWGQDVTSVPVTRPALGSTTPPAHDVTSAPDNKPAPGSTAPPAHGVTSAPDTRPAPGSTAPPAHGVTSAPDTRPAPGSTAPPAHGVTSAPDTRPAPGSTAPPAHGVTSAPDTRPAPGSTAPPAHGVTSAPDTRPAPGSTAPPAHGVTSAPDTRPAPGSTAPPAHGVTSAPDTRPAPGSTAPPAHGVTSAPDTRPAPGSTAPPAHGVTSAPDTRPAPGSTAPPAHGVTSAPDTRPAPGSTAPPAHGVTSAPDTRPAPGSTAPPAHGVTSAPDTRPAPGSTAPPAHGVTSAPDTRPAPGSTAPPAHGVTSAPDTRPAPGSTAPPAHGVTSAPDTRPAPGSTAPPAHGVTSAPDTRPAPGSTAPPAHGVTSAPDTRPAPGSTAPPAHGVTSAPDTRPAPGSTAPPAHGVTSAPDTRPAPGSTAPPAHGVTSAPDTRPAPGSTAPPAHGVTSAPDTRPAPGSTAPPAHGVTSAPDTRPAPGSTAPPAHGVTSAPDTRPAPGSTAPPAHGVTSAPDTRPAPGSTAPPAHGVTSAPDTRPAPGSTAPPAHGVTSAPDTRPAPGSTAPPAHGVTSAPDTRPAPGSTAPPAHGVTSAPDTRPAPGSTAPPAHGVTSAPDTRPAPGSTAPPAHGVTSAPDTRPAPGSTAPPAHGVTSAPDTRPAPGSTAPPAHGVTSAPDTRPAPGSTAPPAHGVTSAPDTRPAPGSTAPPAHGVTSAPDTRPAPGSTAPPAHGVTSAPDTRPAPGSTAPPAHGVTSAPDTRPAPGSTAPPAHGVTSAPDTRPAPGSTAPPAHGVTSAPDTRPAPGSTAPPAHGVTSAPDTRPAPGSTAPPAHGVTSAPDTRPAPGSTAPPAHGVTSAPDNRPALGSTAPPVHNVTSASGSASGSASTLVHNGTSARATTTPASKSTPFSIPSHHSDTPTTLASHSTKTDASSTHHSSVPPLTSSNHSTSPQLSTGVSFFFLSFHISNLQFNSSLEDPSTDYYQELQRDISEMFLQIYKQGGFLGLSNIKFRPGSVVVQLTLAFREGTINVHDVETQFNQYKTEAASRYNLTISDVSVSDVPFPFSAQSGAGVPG

Q: For “GCAGTTGATCCTTTGGATACCCTGGAGTGA [Mucin 1 aptamer]”, which Kd is on record?
A: Its Kd is 135 pM.
